How the values were obtained:
JAK3 = target: T1, JAK3 (Homo sapiens, UniProt P52333); test: TR-FRET kinase assay, JAK3; format: biochemical; settings: Kinase Concentration 0.5 nM; 50 nM ULight-labeled substrate, 200 micromolar ATP, 2 hours
T1 sequence (P52333 1-1124): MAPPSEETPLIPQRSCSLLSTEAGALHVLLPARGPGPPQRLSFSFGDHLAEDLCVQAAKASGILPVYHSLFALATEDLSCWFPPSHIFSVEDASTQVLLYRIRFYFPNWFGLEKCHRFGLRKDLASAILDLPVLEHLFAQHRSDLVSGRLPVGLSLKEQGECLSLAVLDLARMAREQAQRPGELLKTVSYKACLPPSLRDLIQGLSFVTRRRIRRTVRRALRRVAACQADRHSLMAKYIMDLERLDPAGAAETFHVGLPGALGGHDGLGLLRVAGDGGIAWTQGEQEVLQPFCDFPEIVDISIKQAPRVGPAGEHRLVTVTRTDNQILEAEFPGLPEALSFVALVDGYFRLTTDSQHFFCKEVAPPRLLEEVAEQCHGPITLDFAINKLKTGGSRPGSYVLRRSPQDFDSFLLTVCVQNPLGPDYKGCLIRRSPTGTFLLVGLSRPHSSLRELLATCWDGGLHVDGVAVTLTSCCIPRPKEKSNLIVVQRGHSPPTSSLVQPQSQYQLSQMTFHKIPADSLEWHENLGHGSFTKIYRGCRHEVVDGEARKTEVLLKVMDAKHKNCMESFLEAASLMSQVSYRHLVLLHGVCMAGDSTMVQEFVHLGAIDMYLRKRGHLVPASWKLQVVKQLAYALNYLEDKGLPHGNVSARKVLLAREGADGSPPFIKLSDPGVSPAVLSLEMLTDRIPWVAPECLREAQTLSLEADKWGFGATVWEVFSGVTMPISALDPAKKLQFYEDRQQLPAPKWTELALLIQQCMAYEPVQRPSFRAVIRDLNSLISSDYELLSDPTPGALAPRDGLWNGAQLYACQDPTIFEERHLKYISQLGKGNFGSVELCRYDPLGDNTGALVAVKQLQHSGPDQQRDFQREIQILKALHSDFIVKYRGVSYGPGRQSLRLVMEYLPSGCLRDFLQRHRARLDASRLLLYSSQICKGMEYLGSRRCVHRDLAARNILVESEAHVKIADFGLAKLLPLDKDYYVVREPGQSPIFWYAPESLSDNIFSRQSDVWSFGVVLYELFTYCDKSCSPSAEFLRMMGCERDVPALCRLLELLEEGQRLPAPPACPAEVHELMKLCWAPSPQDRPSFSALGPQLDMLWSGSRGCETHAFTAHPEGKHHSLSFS
Description: (§1) TR-FRET kinase assays are performed under standardized conditions: various individual kinases are incubated with 50 nM of kinase substrate BRB1 labeled with the TR-FRET acceptor dye ULight (PerkinElmer) and 200 micromolar ATP in 10 μL of kinase assay buffer (50 mM HEPES pH7.5, 10 mM MgCl2, 3 mM MnCl2, 1 mM EGTA, 2 mM DTT and 0.01% Tween-20) for 2 hours at room temperature. Reactions are stopped with EDTA, and anti-phospho-tyrosine antibodies (clone PT66) labeled with the TR-FRET europium chelate donor dye are added to a final concentration of 2 nM in a final volume of 20 μL. The TR-FRET signal emitted at 665 nm is read one hour after the addition of antibodies using a TR-FRET plate reader such as the Envision® Multilabel Plate reader (PerkinElmer). The emitted signal at 665 nm is proportional to the extent of peptide phosphorylation, Control reactions indicative of background are performed excluding ATP from the reaction.
(§2) Assay conditions are identical to those used described for FIG. 1.

EphB4 = target: T2, EphB4 (Homo sapiens, UniProt P54760); test: TR-FRET kinase assay, EphB4; format: biochemical; settings: Kinase Concentration 0.5 nM; 50 nM ULight-labeled substrate, 200 micromolar ATP, 2 hours
T2 sequence (P54760 16-987): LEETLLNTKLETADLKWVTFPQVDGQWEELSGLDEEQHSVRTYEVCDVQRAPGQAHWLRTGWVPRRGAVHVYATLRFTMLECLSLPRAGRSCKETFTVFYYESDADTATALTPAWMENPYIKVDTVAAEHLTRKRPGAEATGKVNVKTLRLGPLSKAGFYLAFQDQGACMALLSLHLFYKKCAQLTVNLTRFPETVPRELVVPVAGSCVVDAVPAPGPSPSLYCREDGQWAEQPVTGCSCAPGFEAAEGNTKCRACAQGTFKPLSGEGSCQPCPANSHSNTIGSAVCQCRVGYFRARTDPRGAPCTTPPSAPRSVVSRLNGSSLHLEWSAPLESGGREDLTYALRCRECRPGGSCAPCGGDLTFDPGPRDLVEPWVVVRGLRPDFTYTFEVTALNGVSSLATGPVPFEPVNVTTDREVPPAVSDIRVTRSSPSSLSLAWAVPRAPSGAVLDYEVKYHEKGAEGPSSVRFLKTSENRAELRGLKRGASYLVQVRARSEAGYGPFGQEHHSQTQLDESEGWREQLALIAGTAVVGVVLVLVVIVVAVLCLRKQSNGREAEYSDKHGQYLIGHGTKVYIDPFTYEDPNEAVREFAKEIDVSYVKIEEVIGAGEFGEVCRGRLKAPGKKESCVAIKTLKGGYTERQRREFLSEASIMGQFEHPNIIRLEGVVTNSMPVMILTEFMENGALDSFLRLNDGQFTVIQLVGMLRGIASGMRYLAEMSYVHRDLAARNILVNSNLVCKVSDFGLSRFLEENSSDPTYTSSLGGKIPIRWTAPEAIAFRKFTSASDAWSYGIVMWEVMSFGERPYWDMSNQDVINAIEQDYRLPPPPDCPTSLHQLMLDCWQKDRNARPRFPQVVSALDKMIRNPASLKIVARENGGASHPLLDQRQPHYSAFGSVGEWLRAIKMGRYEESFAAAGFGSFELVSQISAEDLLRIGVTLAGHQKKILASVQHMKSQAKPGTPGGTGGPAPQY
Description: as §1, §2

C AYE AYE AYE K EYA EYA EYA K AYA EYE R (CAYEAYEAYEKEYAEYAEYAKAYAEYER; tyrosine kinase substrate peptide) [BRB1]
Signal to Noise ratio with BRB1 Peptide (JAK3): 16.1
Signal to Noise ratio with BRB1 Peptide (EphB4): 29.8

— patent US8242083B2, “Kinase substrates” (PerkinElmer Health Sciences, Inc., priority 2008, dated 2012)
